Measurements reported in US20250134962A1 (published 2025).
Where two headings read alike, the source gives them in different places.

Legend:
GPC3 [1] = molecular target: T1, GPC3 (UniProt P51654 25-554); assay: flow cytometry; HepG2 cells
GPC3 [2] = molecular target: T1, GPC3; assay: flow cytometry; HepG2 cells; remark: listed apart in the source

B1: Codrituzumab (antibody, V domains shown)
VH: QVQLVQSGAEVKKPGASVKVSCKASGYTFTDYEMHWVRQAPGQGLEWMGALDPKTGDTAYSQKFKGRVTLTADKSTSTAYMELSSLTSEDTAVYYCTRFYSYTYWGQGTLVTVSS
VL: DVVMTQSPLSLPVTPGEPASISCRSSQSLVHSNRNTYLHWYLQKPGQSPQLLIYKVSNRFSGVPDRFSGSGSGTDFTLKISRVEAEDVGVYYCSQNTHVPPTFGQGTKLEIKR
For B1, the EC50 (GPC3 [1]) was 529 pM and the EC50 (GPC3 [2]) was 529 pM.
